Reference: article PMC5927468, “A noncanonical role for dynamin-1 in regulating early stages of clathrin-mediated endocytosis in non-neuronal cells” (PLoS Biology, 2018)
Substitutions are numbered along the chain they refer to.

How the values were obtained:
[1] = biological target: T1, Dyn1a^S774/8A-eGFP (UniProt Q05193 1-864, S774/8A | S774/8A); experiment: co-IP; GFP-nAb agarose, 0.5 mg A549 post-nuclear fraction, 2 h at 4 °C; beads washed with buffer 3 (0.5% Triton X-100, 25 mM HEPES, 150 mM KCl, 1 mM MgCl2, 2 mM EGTA, pH 7.4); immunoblot; details: partners not purified
T1 construct: dynamin-1 cDNA, C-terminal splice variant "a" (Dyn1a), in the retroviral vector pMIEG, with S774 and S778 changed to alanine; also called Dyn1^S774/8A-eGFP; Dyn1^S774/8A; source: A549 Dyn1^KO cells, retroviral transduction, in lysate (post-nuclear fraction); not shown: eGFP, C-terminal, kept
T1 sequence (looked up): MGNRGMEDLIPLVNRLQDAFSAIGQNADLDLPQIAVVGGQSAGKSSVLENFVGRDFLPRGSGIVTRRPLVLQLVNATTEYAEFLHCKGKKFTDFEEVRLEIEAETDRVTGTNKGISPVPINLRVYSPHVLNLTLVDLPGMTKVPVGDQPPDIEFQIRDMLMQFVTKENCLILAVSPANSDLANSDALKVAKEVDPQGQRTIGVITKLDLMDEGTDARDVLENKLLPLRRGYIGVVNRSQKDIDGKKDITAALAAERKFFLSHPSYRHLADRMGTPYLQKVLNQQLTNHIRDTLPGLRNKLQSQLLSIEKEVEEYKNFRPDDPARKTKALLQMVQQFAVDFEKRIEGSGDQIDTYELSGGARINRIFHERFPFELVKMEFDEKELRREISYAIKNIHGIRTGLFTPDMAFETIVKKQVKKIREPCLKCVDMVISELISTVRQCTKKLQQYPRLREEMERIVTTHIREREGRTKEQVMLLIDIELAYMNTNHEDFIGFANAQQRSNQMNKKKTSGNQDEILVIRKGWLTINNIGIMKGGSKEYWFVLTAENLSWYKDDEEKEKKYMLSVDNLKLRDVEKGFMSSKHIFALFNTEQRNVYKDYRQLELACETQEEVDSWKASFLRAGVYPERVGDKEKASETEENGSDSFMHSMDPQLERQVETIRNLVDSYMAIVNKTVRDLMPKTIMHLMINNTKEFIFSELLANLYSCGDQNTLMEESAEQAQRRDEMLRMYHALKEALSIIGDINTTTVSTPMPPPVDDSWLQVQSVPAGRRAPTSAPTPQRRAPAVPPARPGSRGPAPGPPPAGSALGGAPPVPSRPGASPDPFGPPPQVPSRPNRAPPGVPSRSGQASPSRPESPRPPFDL

[2] = biological target: T2, Dyn1a^WT-eGFP (UniProt Q05193 1-864); experiment: as above; details: partners not purified
T2 construct: dynamin-1 cDNA, C-terminal splice variant "a" (Dyn1a), in the retroviral vector pMIEG; also called Dyn1a-eGFP; Dyn1-eGFP; source: A549 Dyn1^KO cells, retroviral transduction, in lysate (post-nuclear fraction); not shown: eGFP, C-terminal, kept
T2 sequence (looked up): T1 sequence (looked up) with A774S, A778S

B1: sorting nexin 9, endogenous in A549 cells (natural protein, human (endogenous in A549), UniProt Q9Y5X1 1-595, looked up)
chain: MATKARVMYDFAAEPGNNELTVNEGEIITITNPDVGGGWLEGRNIKGERGLVPTDYVEILPSDGKDQFSCGNSVADQAFLDSLSASTAQASSSAASNNHQVGSGNDPWSAWSASKSGNWESSEGWGAQPEGAGAQRNTNTPNNWDTAFGHPQAYQGPATGDDDDWDEDWDGPKSSSYFKDSESADAGGAQRGNSRASSSSMKIPLNKFPGFAKPGTEQYLLAKQLAKPKEKIPIIVGDYGPMWVYPTSTFDCVVADPRKGSKMYGLKSYIEYQLTPTNTNRSVNHRYKHFDWLYERLLVKFGSAIPIPSLPDKQVTGRFEEEFIKMRMERLQAWMTRMCRHPVISESEVFQQFLNFRDEKEWKTGKRKAERDELAGVMIFSTMEPEAPDLDLVEIEQKCEAVGKFTKAMDDGVKELLTVGQEHWKRCTGPLPKEYQKIGKALQSLATVFSSSGYQGETDLNDAITEAGKTYEEIASLVAEQPKKDLHFLMECNHEYKGFLGCFPDIIGTHKGAIEKVKESDKLVATSKITLQDKQNMVKRVSIMSYALQAEMNHFHSNRIYDYNSVIRLYLEQQVQFYETIAEKLRQALSRFPVM
notes: sorting nexin 9, endogenous; also called SNX9; source: endogenous, A549 (Dyn1^KO or Dyn2^KO, reconstituted) lysate
ratio of SNX9 binding to Dyn1^S774/8A versus Dyn1^WT [1]: 3.6 | ratio of SNX9 binding to Dyn1 versus Dyn2 [2]: 1.7
